Target: T1, rat antibody hybridoma clone M7/1 (EMAP II neutralizing M7/1 antibody)
T1 construct: Rat monoclonal IgG from a hybridoma; also called rat monoclonal neutralizing antibody M7
Experiment: description in the sequence table

T1 sequence (VH, as listed by the source, chain 1 of 2): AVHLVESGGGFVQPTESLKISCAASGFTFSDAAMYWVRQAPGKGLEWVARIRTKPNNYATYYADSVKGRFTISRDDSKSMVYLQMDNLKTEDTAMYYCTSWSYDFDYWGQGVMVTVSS
T1 sequence (VL, as listed by the source, chain 2 of 2): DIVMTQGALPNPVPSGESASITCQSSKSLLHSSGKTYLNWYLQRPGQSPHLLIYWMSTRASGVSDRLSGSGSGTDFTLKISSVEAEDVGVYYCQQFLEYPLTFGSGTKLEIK

B1: Peptide 2 (QQSIAGSADSKPIDVSR) (peptide)
peptide: QQSIAGSADSKPIDVSR
notes: Synthetic peptide from human EMAP II; also called ID NO; 12
  binding result: binds

From patent publication US20200040069A1 (INDIANA UNIVERSITY RESEARCH AND TECHNOLOGY, published 2020)
